Source: patent US20120094280

Experiments:
[1] = target: M.SssI DNA cytosine-C5 methyltransferase (Spiroplasma sp.?) (UniProt P15840); conditions: formaldehyde; GCGC site resistant to R.Hin6I
[2] = target: T1, M.HpaII DNA cytosine-C5 methyltransferase (UniProt P15446); conditions: formaldehyde; CCGG sites resistant to R.HpaII
T1 sequence: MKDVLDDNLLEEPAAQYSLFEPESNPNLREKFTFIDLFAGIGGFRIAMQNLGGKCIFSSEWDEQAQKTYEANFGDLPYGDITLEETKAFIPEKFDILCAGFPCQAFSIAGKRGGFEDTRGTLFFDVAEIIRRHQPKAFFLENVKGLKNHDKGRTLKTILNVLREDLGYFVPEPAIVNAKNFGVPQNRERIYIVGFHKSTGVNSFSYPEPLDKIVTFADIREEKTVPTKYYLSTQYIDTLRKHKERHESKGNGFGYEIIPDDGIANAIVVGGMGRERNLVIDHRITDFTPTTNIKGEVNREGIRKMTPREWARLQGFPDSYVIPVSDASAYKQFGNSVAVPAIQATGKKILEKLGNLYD

Chain of M.SssI DNA cytosine-C5 methyltransferase (Spiroplasma sp.?) (P15840 whole entry): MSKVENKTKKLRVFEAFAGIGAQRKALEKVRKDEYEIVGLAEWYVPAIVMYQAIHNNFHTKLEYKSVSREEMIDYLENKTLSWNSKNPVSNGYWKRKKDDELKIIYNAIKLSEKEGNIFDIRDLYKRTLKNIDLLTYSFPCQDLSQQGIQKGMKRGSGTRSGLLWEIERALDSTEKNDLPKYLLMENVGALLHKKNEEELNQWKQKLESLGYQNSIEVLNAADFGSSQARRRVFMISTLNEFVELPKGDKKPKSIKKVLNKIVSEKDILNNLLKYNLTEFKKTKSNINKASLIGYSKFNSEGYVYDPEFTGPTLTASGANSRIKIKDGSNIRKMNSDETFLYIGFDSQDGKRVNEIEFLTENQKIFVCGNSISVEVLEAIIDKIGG

## pUC-618 PCR fragment (618 bp)
[1]
  activity: 70%
[2]
  activity: 70%
